The values below come from article PMC13190607.

The target of the assay is SARS-CoV-2 core replication-transcription complex (nsp12 polymerase with nsp7 and nsp8), elongating on RNA (SARS-CoV-2) (UniProt P0DTD1). The assay can be described thus: single-molecule magnetic tweezers (RNA synthesis traces).

In turn, “SARS-CoV-2 nsp13 helicase (wild type) (from UniProt P0DTD1 5325-5925) (enzyme)” gave a KA of the first helicase (nsp13.1) binding to the core RTC of 0.22 nM⁻¹ and a KA of the second helicase (nsp13.2) binding to RTC-nsp13.1 of 0.47 nM⁻¹.
